According to patent US20160362495A1 (E R SQUIBB AND SONS L L C, published 2016):

Key:
[1] = biological target: T1, recombinant human PD-L1 fusion protein (human PD-L1 fused to an immunoglobulin Fc region) (human, UniProt Q9NZQ7 19-238); assay: ELISA on hPD-L1/Fc, HRP goat anti-human IgG (kappa chain-specific) detection
T1 construct: extracellular domain; also called PD-L1-Fc fusion protein; PD-L1-Ig; not shown: immunoglobulin Fc region
Description: Standard ELISA procedures were performed. The anti-PD-L1 human monoclonal antibodies were added at different concentrations. Goat-anti-human IgG (kappa chain-specific) polyclonal antibody conjugated with horseradish peroxidase (HRP) was used as secondary antibody.

[2] = biological target: T2, cynomolgus monkey PD-L1 expressed on the surface of activated T cells (cynomolgus monkey, UniProt G7PSE7 19-290); assay: flow cytometry titration on activated cynomolgus PBMC, FITC anti-human kappa detection, FL1 GMFI
T2 construct: also called cynomolgus monkey cell surface PD-L1; stimulated cynomolgus PBMC
T2 sequence (G7PSE7 entry or part of it limits assumed): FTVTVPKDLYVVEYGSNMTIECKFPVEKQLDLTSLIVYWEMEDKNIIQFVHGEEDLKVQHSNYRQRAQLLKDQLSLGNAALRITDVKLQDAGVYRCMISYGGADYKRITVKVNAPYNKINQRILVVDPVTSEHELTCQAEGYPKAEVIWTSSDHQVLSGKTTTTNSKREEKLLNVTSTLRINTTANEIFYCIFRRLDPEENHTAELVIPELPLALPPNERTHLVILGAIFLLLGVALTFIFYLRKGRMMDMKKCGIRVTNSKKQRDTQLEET
Description: (§1) Anti-PD-L1 antibodies were tested by flow cytometry for binding to activated human or cynomolgus monkey T cells expressing PD-L1 on their surface.
(§2) Human or monkey T cells were activated by anti-CD3 antibody to induce PD-L1 expression prior to binding with a human anti-PD-L1 monoclonal antibody. […] An isotype control antibody was used as a negative control. The cells were washed and binding was detected with a FITC-labeled antihuman Ig-kappa light chain Ab. Flow cytometric analyses were performed using a FACScalibur flow cytometer (Becton Dickinson, San Jose, Calif.).

[3] = biological target: T1, recombinant human PD-L1 fusion protein …; assay: SPR (Biacore), PD-L1 fusion protein amine-coupled to CM5 chip, antibody flowed at 133 nM, 1:1 Langmuir fit
Description: Anti-PD-L1 antibodies were characterized for affinities and binding kinetics by Biacore analysis (Biacore AB, Uppsala, Sweden). […] The antigen-antibody association kinetics was followed for 1 minute and the dissociation kinetics was followed for 1 minute. The association and dissociation curves were fit to a 1:1 Langmuir binding model using BIAevaluation software (Biacore AB). To minimize the effects of avidity in the estimation of the binding constants, only the initial segment of data corresponding to association and dissociation phases were used for fitting.

[4] = biological target: T3, human PD-L1 expressed at the cell surface (human, UniProt Q9NZQ7 19-290); assay: flow cytometry titration on stimulated human CD4+ T cells, FITC anti-human kappa detection, FL1 GMFI
T3 construct: whole, on cells; also called cell surface PD-L1; hPD-L1
T3 sequence (Q9NZQ7 19-290): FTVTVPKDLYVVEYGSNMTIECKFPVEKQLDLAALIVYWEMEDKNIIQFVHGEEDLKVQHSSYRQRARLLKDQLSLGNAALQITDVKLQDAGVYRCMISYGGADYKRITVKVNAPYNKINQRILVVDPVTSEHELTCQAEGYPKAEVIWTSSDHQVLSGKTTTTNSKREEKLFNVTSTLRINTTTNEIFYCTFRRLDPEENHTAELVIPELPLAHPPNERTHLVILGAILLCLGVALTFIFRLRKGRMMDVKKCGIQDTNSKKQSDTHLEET
Description: as §1, §2

[5] = biological target: T3, human PD-L1 expressed at the cell …; assay: flow cytometry titration on CHO cells transfected with human PD-L1, FITC-labeled anti-human IgG detection
Excerpt: Chinese hamster ovary (CHO) cell lines that express recombinant human PD-L1 at the cell surface were developed and used to determine the specificity of PD-L1 human monoclonal antibodies by flow cytometry. CHO cells were transfected with expression plasmids containing full length cDNA encoding transmembrane forms of PD-L1. […] The cells were washed and binding was detected with a FITC-labeled anti-human IgG Ab. Flow cytometric analyses were preformed using a FACScan flow cytometry (Becton Dickinson, San Jose, Calif.). The binding was compared to the parent CHO cell line. […] Binding was also tested using varying concentrations of anti-PD-L1 antibody.

[6] = biological target: T3, human PD-L1 expressed at the cell …; assay: flow cytometry titration on IFN-gamma-treated ES-2 cells, anti-human kappa detection (sheet title), FL1 GMFI
[7] = biological target: T3, human PD-L1 expressed at the cell …; assay: flow cytometry blocking assay: antibody titrated on IFN-gamma-treated ES-2 cells, then PD-1-hFc at 2 ug/mL, detected with biotinylated 26D5 and streptavidin-PE (FL2 GMFI)
Description: The blocking was compared to isotype control antibody.
ES-2 cells were induced overnight with 500 IU/mL of hIFN-γ to upregulate hPD-L1 cell surface expression. Induced cells were suspended in FACS buffer. […] Finally, bound 26D5 antibody was detected by addition of streptavidin-PE conjugate at 4° C. for 30 minutes, followed by two washes to remove unbound conjugate. Flow cytometric analysis was performed using a FACScalibur flow cytometer (Becton Dickinson, San lose, Calif.). The results are depicted in FIG. 46.

[8] = biological target: T1, recombinant human PD-L1 fusion protein …; assay: Biacore equilibrium binding, 25 C
[9] = biological target: T1, recombinant human PD-L1 fusion protein …; assay: Biacore equilibrium binding, 37 C
[10] = biological target: T1, recombinant human PD-L1 fusion protein …; assay: flow cytometry blocking assay: antibody titrated against FITC-labeled PD-L1-Fc binding to CHO cells expressing human PD-1
Description: Anti-PD-L1 human monoclonal antibodies were tested for the ability to block binding of the ligand PD-L1 to PD-1 expressed on transfected CHO cells by using a cell cytometry assay.
PD-1 expressing CHO cells were suspended in FACS buffer (PBS with 4% fetal calf serum). […] Flow cytometric analyses were performed using a FACScalibur flow cytometer (Becton Dickinson, San Jose, Calif.).

T1 sequence (Q9NZQ7 19-238): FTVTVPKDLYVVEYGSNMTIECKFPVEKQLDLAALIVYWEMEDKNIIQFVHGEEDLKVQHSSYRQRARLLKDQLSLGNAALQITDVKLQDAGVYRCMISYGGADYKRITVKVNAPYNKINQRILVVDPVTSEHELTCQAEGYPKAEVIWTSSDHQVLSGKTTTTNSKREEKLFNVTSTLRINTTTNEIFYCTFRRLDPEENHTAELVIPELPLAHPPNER

Binder | EC50 (read off the curve) [1] [µg/mL] | EC50 [2] [pM] | Kd [3] [pM] | EC50 [4] [pM] | EC50 (read off the curve) [5] [µg/mL] | EC50 [6] [pM] | IC50 [7] [pM] | Kd [8] [pM] | Kd [9] [pM] | koff [3] [s⁻¹] | kon [3] [M⁻¹ s⁻¹] | IC50 (read off the curve) [10] [µg/mL]
3G10 human monoclonal antibody (antibody, V domains shown, Fully human IgG kappa antibody from a KM-mouse hybridoma; also called HuMAb 3G10) VH: QVQLVQSGAEVKKPGASVKVSCKASGYTFTDYGFSWVRQAPGQGLEWMGWITAYNGNTNYAQKLQGRVTMTTDTSTSTVYMELRSLRSDDTAVYYCARDYFYGMDVWGQGTTVTVSS VL: EIVLTQSPATLSLSPGERATLSCRASQSVSSYLVWYQQKPGQAPRLLIYDASNRATGIPARFSGSGSGTDFTLTISSLEPEDFAVYYCQQRSNWPRTFGQGTKVEIK | ~0.1 | 380 | 3390 | 230 | ~0.3 | 420 | 470 |  |  |  |  | 
10A5 human monoclonal antibody (antibody, V domains shown, Fully human IgG kappa antibody from a KM-mouse hybridoma; also called HuMAb 10A5) VH: QVQLVQSGAEVKKPGASVKVSCKASGYTFTSYDVHWVRQAPGQRLEWMGWLHADTGITKFSQKFQGRVTITRDTSASTAYMELSSLRSEDTAVYYCARERIQLWFDYWGQGTLVTVSS VL: DIQMTQSPSSLSASVGDRVTITCRASQGISSWLAWYQQKPEKAPKSLIYAASSLQSGVPSRFSGSGSGTDFTLTISSLQPEDFATYYCQQYNSYPYTFGQGTKLEIK | ~0.08 |  | 1450 |  | ~0.3 | 380 | 290 | 570 | 2410 | 0.000372 | 258000 | ~3
1B12 human monoclonal antibody (antibody, V domains shown, Fully human IgG kappa antibody from a KM-mouse hybridoma) VH: QVQLVQSGAEVKKPGSSVKVSCKTSGDTFSSYAISWVRQAPGQGLEWMGGIIPIFGRAHYAQKFQGRVTITADESTSTAYMELSSLRSEDTAVYFCARKFHFVSGSPFGMDVWGQGTTVTVSS VL: not shown |  | 150 |  | 60 |  | 230 | 210 |  | 1380 |  |  | 
7H1 human monoclonal antibody (antibody, V domains shown, Fully human IgG kappa antibody from a KM-mouse hybridoma) VH: QVQLVQSGAEVKKPGSSVKVSCKTSGGTFSSYAISWVRQAPGQGLEWMGGIIPIFGKAHYAQKFQGRVTITADESTTTAYMELSSLRSEDTAVYYCARKYDYVSGSPFGMDVWGQGTTVTVSS VL: not shown |  |  |  |  |  |  |  |  | 2150 |  |  | 
12A4 human monoclonal antibody (antibody, V domains shown, Fully human IgG kappa antibody from a KM-mouse hybridoma; also called HuMAb 12A4) VH: QVQLVQSGAEVKKPGSSVKVSCKTSGDTFSTYAISWVRQAPGQGLEWMGGIIPIFGKAHYAQKFQGRVTITADESTSTAYMELSSLRSEDTAVYFCARKFHFVSGSPFGMDVWGQGTTVTVSS VL: not shown |  | 100 |  |  |  |  |  |  |  |  |  | 
10H10 human monoclonal antibody (antibody, V domains shown, Fully human IgG kappa antibody from a KM-mouse hybridoma) VH: EVQLVESGGGLVQPGRSLRLSCAVSGFTFDDYVVHWVRQAPGKGLEWVSGISGNSGNIGYADSVKGRFTISRDNAKNSLYLQMNSLRAEDTALYYCAVPFDYWGQGTLVTVSS VL: DIQMTQSPSSLSASVGDRVTITCRASQGISSWLAWYQQKPEKAPKSLIYAASSLQSGVPSRFSGSGSGTDFTLTISSLQPEDFATYYCQQYNSYPYTFGQGTKLEIK |  |  |  |  |  |  |  | 5480 | 5930 |  |  | 
